Results on 2 molecules are retold here after patent publication US20150197568A1 (AstraZeneca / MedImmune, published 2015).

The IC50 is the concentration that inhibits the measured activity by half.

B1: CAN022D10 IgG (antibody, V domains shown)
VH: EVQLVQSGGGLIQPGGSLRLSCAASGFTISSNYMIWVRQAPGKGLEWVSDLYYYAGDTYYADSVKGRFTMSRDISKNTVYLQMNSLRAEDTGVYYCARWADDHYYYIDVWGRGTLVTVSS
VL: DIVMTQSPSTLSASVGDRVTITCRASQGISSWLAWYQQKPGRAPKVLIYKASTLESGVPSRFSGSGSGTDFTLTISSLQPEDFATYYCQQSYSTPWTFGQGTKLEIKR
notes: Biotinylated in the HTRF antibody-ligand assay; also called CAN22D10; parent IgG

Assay [1] addresses T1, Rat IL-6 (rat, UniProt P20607 25-211).
T1 sequence (looked up): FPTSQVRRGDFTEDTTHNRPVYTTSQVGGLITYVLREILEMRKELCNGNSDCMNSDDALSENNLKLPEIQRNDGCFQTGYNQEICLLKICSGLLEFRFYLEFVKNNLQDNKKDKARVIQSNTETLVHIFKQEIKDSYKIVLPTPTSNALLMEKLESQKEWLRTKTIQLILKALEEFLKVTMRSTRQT
In words: DELFIA epitope competition; protein titrated against biotinylated HIS FLAG IL-6 on immobilised CAN022D10 IgG. As to the method:
(§1) Titrations of IL-6 species including cynomolgus (in house E. Coli derived), human HIS FLAG IL-6 (in house HEK-EBNA derived), rat and murine IL-6 (both R & D Systems) were tested in each assay to establish the species cross-reactivity of the antibodies. Details of the protocol are provided in the Materials and Methods section.
(§2) Purified IgG were adsorbed onto 96-well Maxisorp microtitre plates (Nunc) in PBS at a concentration which gave a significant signal when biotinylated human IL-6 was added at approximately its estimated Kd for that particular IgG. Excess IgG was washed away with PBS-Tween (0.1% v/v) and the wells were blocked with PBS-Marvel (3% w/v) for 1 h. […] These mixtures were then transferred onto the blocked IgG and allowed to equilibrate for 1.5 h. Unbound antigen was removed by washing with PBS-Tween (0.1% v/v), while the remaining biotinylated human IL-6 was detected by streptavidin-Europium3+ conjugate (DELFIA® detection, PerkinElmer). Time-resolved fluorescence was measured at 620 nm on an EnVision plate reader (PerkinElmer). Fluorescence data was converted to % specific binding (100% was determined from control wells containing biotinylated human IL-6 but no competitor, 0% was from wells containing biotinylated human IL-6 and a 100-fold excess of unbiotinylated human IL-6). Resultant data were analysed using Prism curve fitting software (Graphpad) to determine IC50 values according to Equation 3.

Assay [2] has as its target T2, Human Oncostatin M (human, UniProt P13725 26-221).
T2 construct: also called OsM
T2 sequence (looked up): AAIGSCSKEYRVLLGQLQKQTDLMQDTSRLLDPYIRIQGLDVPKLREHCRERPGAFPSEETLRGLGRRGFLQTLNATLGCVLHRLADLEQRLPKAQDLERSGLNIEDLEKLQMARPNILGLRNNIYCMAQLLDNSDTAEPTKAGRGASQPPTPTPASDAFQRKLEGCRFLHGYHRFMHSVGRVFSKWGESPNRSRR
Described as above. As to the method:
as §1, §2

Assay [3] concerns the target T3, Murine IL-6 (murine, UniProt P08505 25-211).
T3 construct: also called mouse IL-6
T3 sequence (looked up): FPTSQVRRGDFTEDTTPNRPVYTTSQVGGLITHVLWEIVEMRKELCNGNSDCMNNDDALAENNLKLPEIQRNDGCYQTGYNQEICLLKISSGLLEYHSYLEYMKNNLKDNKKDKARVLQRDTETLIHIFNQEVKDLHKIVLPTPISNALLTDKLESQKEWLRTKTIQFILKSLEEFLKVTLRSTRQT
The assay is described as above. How it is done:
as §1, §2

For assay [4], the target named is T4, Human IL-11 (human, UniProt P20809 22-199, limits assumed).
T4 sequence (looked up): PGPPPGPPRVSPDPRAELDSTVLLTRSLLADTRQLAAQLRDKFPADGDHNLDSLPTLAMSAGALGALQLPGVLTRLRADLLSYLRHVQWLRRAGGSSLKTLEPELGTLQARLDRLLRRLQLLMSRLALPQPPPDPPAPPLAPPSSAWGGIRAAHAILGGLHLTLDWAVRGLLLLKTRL
Described as above. How it is done: as §1, §2

Assay [5] has as its target Human LIF (human, UniProt P15018 23-202). Described as above. How it is done:
as §1, §2

For assay [6], the target named is T5, Human CNTF (human, UniProt P26441 2-200).
T5 construct: also called ciliary neurotrophic factor
T5 sequence (looked up): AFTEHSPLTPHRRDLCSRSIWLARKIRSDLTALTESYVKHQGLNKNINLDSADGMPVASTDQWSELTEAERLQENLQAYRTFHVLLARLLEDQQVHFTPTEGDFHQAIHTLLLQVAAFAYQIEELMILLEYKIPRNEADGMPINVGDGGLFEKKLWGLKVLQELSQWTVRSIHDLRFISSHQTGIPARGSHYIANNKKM
Described as above. How it is done: as §1, §2

The target of assay [7] is T6, HIS FLAG tagged human IL-6 (human, UniProt P05231 30-212).
T6 construct: In house; also called HIS FLAG IL-6; HIS/FLAG IL-6
In words: HTRF receptor-ligand competition; HIS FLAG human IL-6 vs biotinylated sIL-6R. How it is done: Unique scFvs were expressed again in bacteria and purified by affinity chromatography (as described by Bannister et al. Purified IgG samples of these clones were also prepared as described in section 1.3. The potencies of these samples were determined by competing a dilution series of the purified preparation against biotinylated sIL-6R for binding to HIS FLAG tagged human IL-6 (in house E. coli derived).
Purified scFv and IgG from positive clones identified from screening were tested in a HTRF® assay for inhibition of binding of HIS FLAG tagged human IL-6 to biotinylated IL-6R. 8 nM biotinylated human IL-6R was pre-incubated for 30 minutes at room temperature in the dark, with 8 nM streptavidin XL^{ent!}™. All dilutions were done in phosphate buffered saline (PBS) containing 0.4 M potassium fluoride and 0.1% BSA (assay buffer).
On the technique in general: In TR-FRET formats the signal depends on donor and acceptor labels being close together.

The target of assay [8] is Mature human IL-6 (human, UniProt P05231 30-212). The assay is described as follows: cell-based or functional assay.
Assay [9] concerns the target B1. In words: DELFIA epitope competition; protein titrated against biotinylated HIS FLAG IL-6 on immobilised CAN022D10 IgG. As to the method: as §1, §2

Human LIF, sequence (P15018 23-202 limits assumed): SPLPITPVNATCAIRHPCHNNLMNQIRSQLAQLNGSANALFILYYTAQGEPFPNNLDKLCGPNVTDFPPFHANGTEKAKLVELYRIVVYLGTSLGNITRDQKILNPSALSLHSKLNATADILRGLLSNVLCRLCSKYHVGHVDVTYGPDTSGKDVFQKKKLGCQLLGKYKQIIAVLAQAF

For the molecule B1, the binding result in [1], in assay [2], in assay [3], in [4], in assay [5] and in assay [6] was “no binding” in each case. This molecule also had an IC50 in [7] of 0.31 nM. Besides, in [8], the “IC50, IL-6 induced TF-1 cell proliferation” value stood at 93 nM. The “IC50, endogenous IL-6 induced VEGF release from human synovial fibroblasts” value in assay [8] came to 45 nM.

B2: Cynomolgus IL-6 (ligand, UniProt P79341 28-212, looked up)
chain: APVLPGEDSKDVAAPHSQPLTSSERIDKHIRYILDGISALRKETCNRSNMCESSKEALAENNLNLPKMAEKDGCFQSGFNEDTCLVKIITGLLEFEVYLEYLQNRFESSEEQARAVQMSTKVLIQFLQKKAKNLDAITTPEPTTNASLLTKLQAQNQWLQDMTTHLILRSFKEFLQSSLRALRQM
notes: mature; also called cyno IL-6; macaque IL-6
B2 had an IC50 in assay [9] of roughly 100 nM.
